Test results from the NTF2 design screens of Basanta et al. (2020).

Experiment: protease stability score; higher = more stable; yeast display proteolysis, trypsin and chymotrypsin;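 further: log10 excess protease needed over predicted unfolded state with 0 meaning unfolded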
In the case of “DESARDIASTIVSALHNNNPSQFSENLDKDATLNIGDKRIHGKERAEEHLSNQIKSLRIQFDDYQVRVHNGDVIINLDYKRDHNGEPRRVKQRVTIQIHNGRAQSVVVKETS”, the protease stability score is reported as 0.365.
“DESAVNNLVRLAKAWLRGDPKKIEHLVDKDAKAQIGDKTLHGREDLKDHADELRKDMTVDVKSVTNNNQNGQAVVDVKFEADRNGRPETHTLDAKATAHNGDIVDVKIHQDG” showed a protease stability score of -0.304.
With “DESDLSRQAKELIDNWETGNPDKMRKLMDENVTADVGDKRWHGRDEVVKWFKTLVDSIDHIEVREFKVSGNSVTFTAEANVNGKKATFQVVIEVHNGKIKDVKVNPDDLKQLEK” the protease stability score was 1.58.
“DESDMKRQAELFIRAVNTGDSDKVRKMADKDAHYDVGDKEIHGRENAARWVQRLREQADEVTVRDVRVQGEKVVIDVQADVNGRDVRMDLVIEFHNGKAQEVKMKHS” showed a protease stability score of 0.025.
In the case of “DESDQDRFRKYLHQLQNGDEKKLRKNMDPNVKFEVGEKRYEGREEYAKKVRQEVEEMRFSFKIHDIEVHNGRVTVEFEVTYEHNGRPDHEHVRIEMEVHNGKIRSVRQESDK”, the protease stability score is reported as 0.043.
In the case of “DESDVEDLAKDAINAYQTGDPDQVARMADKDVKFTVGDHEVKGRNQLREHLQTIFHNVDHFDVTDMRINGNKARIHFTANVNGQTERNVMIIVAHNGKVRKMAIHSQ”, the protease stability score is reported as -0.566.
In the case of “DESDVERLTEIMEQNDFDQWVDQADKDAELVVGDKTLKGRETIQRWLKILSERVDHVSIKHIRNNGEEVDVKMTMIINGHRFEFVVNLTVHNGKITRFNFNFRDPDQLRRLHDQMS”, the protease stability score is reported as 1.25.
“DESDVKRAQDMVQNEQDGNEEEFDKLLDENVHFNVGDKRVNGRQQYLREVKKKRDQIRFSIKIDSVRARNGEATIDASARMVVNGQPKTYKFVIHVVQHNGDVRHVRISVPEEDVKRLKS” gave a protease stability score of 0.212.
In the case of “DESEEKELEDILRRNDWERMSELAPPDVHATVGDTRLHGMEQVLSLFQTLNKRADQIHVKTLSVHNGQLHAVIVMQFNGRRVELHFDFEVKNGEFTSARVQARTEEEEKVMKEVLR”, the protease stability score is reported as 1.05.
For “DESEHAKRVADKFRTAAKNGDPDQFTQLADPNAKIDIGDKDVSGRERLSEVVNELNKRIDHLEVKVRSVTQRGNHLVVKADVDAEHNGQEIRRKVDIVLRNNNGRVNLEMIRYR”, the protease stability score was 1.03.
Work on “DESELEQLKRDWEHNDFDQLVRNMDKDVRLRIGNKQWHGHEQVQNFNRKMQEQIDHQHIRHIETRGNKIRVTYEIDINGQTMVVNAEAYIDNGRLKSMHVKFTSEEHRKVFEKAVD” yielded a protease stability score of 0.746.
Work on “DESELERAIEMLEQNDPEEARRQVDKNAHMQVGEKSWTGREDVQTALVKHNEHVDHVEVKSVTKRGDKAEVKARVEFNGHNLKANFIVEVHNGKIKHVRVEVTDEEQKKLMRELLQ” yielded a protease stability score of -0.363.
In the case of “DESEMDTAVKIVEKGDPHQYKKLIDPNAKIIVGDKELHGREDVERLLHKLYEQADHVQINSITVQGDELRVDAQFKFNGRDIRMVVEFRVHNGRVKSAHIQATSEEQERELSKMIS”, the protease stability score is reported as 1.35.
“DESEMQKAVEDIVKMLETGNETKFQENAPPDVRVDVGDKRFTGREDLRKWVHDVKERVDRIRVTHYSAHGEDVVIDVVYRHNGTNERANIVVHIHNGRMVQMKVQQS” gave a protease stability score of 0.944.
With “DESEQASEVAHEMRHLYRKNDEDRFRELMDENVRARVGDKEYHGREDVLRMFQHEMRTADHMDVQVNDFRKEGDSIIIHADLKYVSNGNDRTRRLVFVLEVNGDTITLLQQQDQ” the protease stability score was 0.096.
“DESHARHLQRVFEKNDWQRLVELADEDVRIQIGNYDYHGRTAAQQMFEKLSKQIDHMEVKSMRVQGNKLQFDFEVNFNGKRNQAHFEMHFSNGRIKKIRFQFRDEEHEKDFDRHFS” showed a protease stability score of 1.46.
“DESIMNMMHQLIDAMETNDPEKMKRLADKDATFVYGDKTVHGRHQAEEWIHKVKKHQRFRIDLRDVKADNGRVTVNAQIDQNHNGQPSQRTVDAKAEVSNGRVKHASVRRTS” gave a protease stability score of -0.117.
“DESITEFASHWKEVLEHGDFRRMADNVDEDVKVRIGDKEIHGRTRYRRRAKKQEDEISFRLQDLHVEVQGDHIVAKFQATVKINGQPNTFTVNVVMRVHNGRIKYMEQQFSEEDEDKLTQ” gave a protease stability score of 0.534.
Sequence “DESKEAHTLAKKYVELVKKGDQEKMKTMFDPNAKAHIGDKTYHGMTDFVETLVEQAKRVDHQSVDVKSVEVDGDHIDVEVTVKYTYNGQNRSNVERFIVRNHNGKWRVKEWHDK” has a protease stability score of -0.145.
With “DESKKAKKFMEEYKRAIETGDEDTAKNLADKDARVKVGDTTYTGMDHIRERVVTEAKQVDHITFEVKEMQTRPGRLKVRMDVIFDHDGRKDRKEVVLVFKDNNGKVLLLSASYQ” the protease stability score was -0.041.
“DESKQKQFEHFLEVVKTGNEEDLRKNMDKDVRVQIGDKQVHGRENIASELVRRQKEIKLHIRDMRIDVHNGRVQASVDVVDNINGKPTRYSYRFEYNIENGKLKSARIHIDPDQVRKVEE” gave a protease stability score of 1.03.
With “DESKQRTFAEELLTAWETGNDDQARKLADPNVRFHIGDKEISGRENFAKWAKEVRDRVDHIRYEHIEIRGEKVRVNVQLEFDGKTERRVIVFNVHDGQVKSMDVKTT” the protease stability score was 1.34.
“DESKVNEIVQKFVNAVREGNENHLRSLMDKDVTLHVGDRTWHGREQVASFMAHVAKRVDRIRIVHIEIHGDKANVNVRFDVNGTEVQLTMDIRIKNGRIMKIHMSPEDEKKLQG” gave a protease stability score of 1.76.
“DESLADVFRRLLEAYRNGDEQKLRDNVDPNAKFNIGDKRFSGREQFARDMHKERKEIRVSIQLHEYDNQGEDVDFTFQFSAEVNGEPVHDTVRVEVHAHNGKIKRVHMHMSEKFQHQLRG” gave a protease stability score of -0.027.
Work on “DESLAEQWMRDIKSNNEERFRRYVDPNVHADVGNFKVHGRHDLVEQLRKLLEQVDHLDYHSVSADGDDVTVDVVIDVNGNTVRYELIVRFHNGQAHSLQMHVTNPDQDRQLHEVVK” yielded a protease stability score of -0.013.
In the case of “DESLEDMARQLNTALQTNNPESVKEMFDKNARLEVGDKTWKGREHIDQWANRLRDEIRYEVRRFDLRVHGDKIEVNVHEEIQINGRPKSVSYSYTMRAHNGRIKHARYQPDPDAERRKKK”, the protease stability score is reported as 0.031.
For “DESLEERLDTLRKVEEQGDEDTAREQADPNVKIVVGDRRVHGMDEQLEELRRRVKEARVTIESLSVDAHGDKVDVKVRLTFTIDGRPASVNLHQHYQLQNGKFKHVEARFSEEDRDELQT”, the protease stability score was 0.846.
In the case of “DESLHRWYERLQEALEHGDEDRLRKNADKDVQVDVGDKRVHGSEHYAHELVRESREMDFHIHRMEVSVTGNRITVDYVYDREHNGTPQSKRVQERYQAHNGKLKRASVQETD”, the protease stability score is reported as -0.093.
For “DESLMKVAQEVHDAWNQGDPTKLQENFDKDAEIQVGDKQIHGREDATRELDRKKKQQRFEVQVTSMTAQNGDVKVDARFHFKHNGRPDERRFKLTINAENGRIQEASIDQTK”, the protease stability score was -0.151.
For “DESLQHMAEEMLEVWQTGDKERAATMMDKDARVRVGDHTVRGRESLQKNIETEKEQMRVQIRHVDARVHNGRVDVKVEVELDHNGKPQRVVYNIDFRAHNGRVQEIHIQEDG”, the protease stability score was -0.181.
Work on “DESLRKLLERIWRALTSGDPDELRKLADEDAKFQIGDKRINGMNEAAERWATRVRQLRVRIEDVKQHVEGDKVEAHLDVVREKNGQPQKHEEHVRMRAEGDRAKELVIQISQ” yielded a protease stability score of 0.031.
“DESLRSKAEEFLKAIEHGDPDEASRQLDPNARFEIGDKEITGRETFDRTMHETRNQMRLEVKSYDARASNGRVHMEVRFQATHNGQPQDNREVQDFQFSNGRIERVSVEKDS” gave a protease stability score of -0.463.
“DESLVEILKKLAKAFNENDPDHLVKLFDEDARLDYGDTSVHGREQIKRLMEDWKRRMTVKIRVNHIDVKNGRAQMKADLTIRHNGKPDTNKVEVELHAHNGRNKEVVFERTK” gave a protease stability score of 0.279.
Work on “DESMQKEVHDFLKAQMTNNEDQLRRQADPNARFVYGNKTLHGMDQAAKHLVKLYREATFRIESVSIDAQGDKADIKQTFIVDINGKPDRDTADIKIKFHNGTIKEVNIQVDEEKERKIRS” yielded a protease stability score of -0.218.
“DESNREVYQKLLNAQTKGDEETAKELADPNASVQIGDKQIHGMDQYVKQMTRDKRRARVRIRDVRVDVQGDNIRVSAHFQEDHNGKPDERTMTQSYKVENGKMKSASVHSLS” showed a protease stability score of -0.124.
In the case of “DESQAEALHEVLQAERTNDPKKVEEQMDPHVNIVIGDKTYHGRDRIREDVKRKIDEMRVHVESVRFDEQGDKARAEATLRYNHNGRPSSKKIVIQMKAENGQIKTMRVHDTK”, the protease stability score is reported as -0.646.
In the case of “DESQAKEFVDNFKTNNREELQKQVDKDAKMIVGNKEYHGEEQVQDALRDLNEEVDHLTIKSVELKGNSVTIYFIIVINGTRMTVHVVAVFHNGRVKKEVWTATDEDDKRKIDQVVG”, the protease stability score is reported as 0.281.
“DESQHQSLAKNLVRIFEEGDEDDVRKLADKDARLEVGDHELRGREQVAKFYKRVRDRIDELEIRDVHVQGERVSVHVVVRYNGRHVDFKINIVAHNGRITRVRVDPDRFRQLHS” gave a protease stability score of 1.64.
Sequence “DESQLELVKELLDVLQTGNPDEARQLVDKDVNIRIGDRVIHGREQLQSHVEKVKREQQVHVNITDMKVKGDKIKVVAQYKNHHNGQPSHNKMVLDAEVNGDKIHRMEYKSQS” has a protease stability score of -0.453.
Work on “DESQQKHLTRLLEDNDFDRLAELADKHVRVEYGDQSYQGRETFQEMQEKLKKRADHLTYRSIDNQGDKIKVDFVLNVNGKDVRLQFDFRFNNGHIKEMTITATSEENLHKFEEALS” yielded a protease stability score of -0.094.
“DESQVDEAKKMAKVWEDGDPDQLRRMADPNAKMHIGDKDIRGHTEATRWVRHLSEHMRQRLDSVRVDTEPNRAEAKIQLTVDVNGKPDRYTAHLNMVVDNGRVRKLEVRFDEEDKKRRQS” gave a protease stability score of -0.139.
In the case of “DESRKAREYMDKFKEIMDTGDPDKLRNLVPPDVTMQYGDRSLKGREEFVEHLQELLERADHVDVTVVDVKQDGDQLHFEVRVTYEENGERREYTFVFVAIVQGDKVRVKEMREK”, the protease stability score is reported as 0.065.
In the case of “DESVENTVTEILEAEQQNNEEELRRLADPNAEVRVGEKTIHGMDEAVHQIAHELKQQRVEYSDMKISVNNGRARIDVEVEVEKNGRPHTSHYERTIEMHNGRMTHMEQRDDG”, the protease stability score is reported as -0.524.
In the case of “DESVKERMKRILETGDWKKLVEMADEDASVKVGEKEFHGREQVSDFFKELQDQADTQEIKHVSVHGEHVVNTMVIRFNGKEVHLVLTVQLTNGKIHSASVKFTSEEHHKIMLRAIS”, the protease stability score is reported as 0.257.
“DESVLEMAERIIEAFNNGDPERAVNQADPNVKITVGDKSITGREDLRRELEKQLKEQEQHIQVLRVTDHNGQAQMDIRMTSEKNGNPDHRRATVQFHATNGKLQTMRVDQRG” showed a protease stability score of -0.599.
With “DESVRRNFEDLLRAEETGDPDRVMDLVDPNARIQVGDKYLQGREQIDETMERHKSEIRFSIDRLSATDHNGVVDVTMSMKKNVNGKPKKFRAEVNVKAHNGKLKLLDMKIDG” the protease stability score was -0.284.
“DESVTEQANKMLDNIEKNNPEKVREQVDPNAKLQIGDKTLSGREHVQKQVEREMKDISVTRDLKSVNVRNGRAVFDMTVDFDVNGKPIHAHQVMEVQATNGRIKSVTYKIDTEELRKIDK” gave a protease stability score of -0.499.
For “DETAARDVEELLTHVKTNNPENVVKLADPNAKAKIGDQTVKGREELTKQMTKELRHQRMSVEIKDYKVHGNKVVIDAEFTYNHNGRPQKKDVEIYVVFRGEKIEKFVWRTDG”, the protease stability score was 0.627.
For “DETAERLEHQLKSALETGDEESAKKQFDPNVKFQYGDKVIHGMENAIERIVKRLKELHVSVELKSMHVEGNNIQADLVATENHNGQPRTRRFTLHVTWRNGRIQEIRQQDTK”, the protease stability score was 1.31.
Work on “DETAISVAKTMFEAMESNDPDEVRRQADPNATFVIGDKNYHGMETYAKEVKKRNDKIDVQLQDMDITDQGEDADIKQVAVFTHDGRPKKVVIHWDISVRNGRIKFVHADQRG” yielded a protease stability score of -0.4.
